Test results published in patent publication EP1798242B1.

Legend:
[1] = biological target: récepteur à l'insuline IR exprimé sur des cellules d'insectes Sf9 (baculovirus) (UniProt P06213); assay: FACScan on Sf9 insect cells expressing IR (baculovirus), anti-mouse FITC secondary; Tableau 1, column Cellules IR +
[2] = biological target: IGF-IR exprimé sur des cellules d'insectes Sf9 (baculovirus) (UniProt P08069); assay: FACScan on Sf9 insect cells expressing IGF-IR (baculovirus), anti-mouse FITC secondary; Tableau 1, column Cellules IGF1R +
[3] = biological target: récepteur à l'insuline IR exprimé sur des cellules d'insectes Sf9 (baculovirus) (UniProt P06213); assay: FACScan on Sf9 insect cells expressing IR (baculovirus), secondary antibody alone; Tableau 1, column Cellules IR +
[4] = biological target: IGF-IR exprimé sur des cellules d'insectes Sf9 (baculovirus) (UniProt P08069); assay: FACScan on Sf9 insect cells expressing IGF-IR (baculovirus), secondary antibody alone; Tableau 1, column Cellules IGF1R +

| Substance | MFI (Moyenne de l'intensité de fluorescence) [1] | MFI (Moyenne de l'intensité de fluorescence) [2] | MFI (Moyenne de l'intensité de fluorescence) [3] | MFI (Moyenne de l'intensité de fluorescence) [4] |
| --- | --- | --- | --- | --- |
| AcM commercial αIR3 (anti-IGF-IR) (antibody) | 32 | 35 |  |  |
| Anti-souris FITC (antibody) |  |  | 13 | 9 |
